# Source: PMC8062585, “Machine learning guided aptamer refinement and discovery”
# Target: T1, NGAL (UniProt P80188 21-198)
# Assay: bead-based fluorescence binding (flow cytometry); PBSMCT: DPBS with 2.5 mM MgCl2, 0.9 mM CaCl2, 0.01% Tween 20; room temperature, 1 h; bound NGAL detected with iFluor 647 anti-His antibody (6 nM)
# Details: protein: commercial; tags: C-terminal His-tag; hairpin (predicted)
# T1 sequence (P80188 21-198): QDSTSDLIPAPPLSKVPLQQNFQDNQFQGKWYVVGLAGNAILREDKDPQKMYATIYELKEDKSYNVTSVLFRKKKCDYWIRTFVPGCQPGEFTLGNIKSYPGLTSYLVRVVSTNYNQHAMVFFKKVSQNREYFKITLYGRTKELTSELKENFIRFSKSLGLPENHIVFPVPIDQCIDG
row,Binder,Kd [nM]
1,"GAGGATTTGGTGGATAGTAAATC (ssDNA, 5' biotin) [G13.8 (G13_23)]",1.5
2,"ACGTTTTTGGTGGATAGCAAATG (ssDNA, 5' biotin) [G12.5 (G12_23)]",11

# Target: T1, NGAL
# Assay: bead-based fluorescence, 4-concentration estimate; PBSMCT: DPBS with 2.5 mM MgCl2, 0.9 mM CaCl2, 0.01% Tween 20; room temperature, 1 h; bound NGAL detected with iFluor 647 anti-His antibody (6 nM)
# Details: protein: commercial; tags: C-terminal His-tag
row,Binder,Kd [nM]
1,"ACGTTTTTGGTGGATAGCAAATGCCAGGGCCCTTT (ssDNA, 5' biotin) [G12.2]",< 32
2,"CAAGAGGATTTGGTGGATAGTAAATCTTTGCCTATCCAG (ssDNA, 5' biotin) [G13.1]",< 16
3,"TTTGGTGGATAGTAA (ssDNA, 5' biotin) [G13.12]",< 256
4,"CAAGAGGATTTGGTGGATAGTAAATCTTTGC (ssDNA, 5' biotin) [G13.3]",< 8
5,"AGAGGATTTGGTGGATAGTAAAT (ssDNA, 5' biotin) [G13.7]",< 16
6,"ACGTTTTTGGTGGATAGCAAATGCCAGGGCC (ssDNA, 5' biotin) [G12.3]",< 32
7,"AGAGGATTTGGTGGATAGT (ssDNA, 5' biotin) [G13.11]",< 1020
8,"ACGTTTTTGGTGGATAGCAAATGCCAGGGCCCTTTTTTG (ssDNA, 5' biotin) [G12.1]",< 16
9,"AAGAGGATTTGGTGGATAGTAAATCTT (ssDNA, 5' biotin) [G13.5]",< 8
10,"ACGTTTTTGGTGGATAGCAAATGCCAG (ssDNA, 5' biotin) [G12.4]",< 16
11,"CAAGAGGATTTGGTGGATAGTAAATCTTTGCCTAT (ssDNA, 5' biotin) [G13.2]",< 16
12,"GTTTTTGGTGGATAGCAAA (ssDNA, 5' biotin) [G12.6]",< 32
13,"GAGGATTTGGTGGATAGTAAATCTTTG (ssDNA, 5' biotin) [G13.4]",< 8

# Same assay, conditions: protein: commercial; tags: C-terminal His-tag; hairpin (predicted)
row,Binder,Kd [nM]
1,"GAGGATTTGGTGGATAGTAAATC (ssDNA, 5' biotin) [G13.8 (G13_23)]",< 8
2,"ACGTTTTTGGTGGATAGCAAATG (ssDNA, 5' biotin) [G12.5 (G12_23)]",< 16
